Test results from article PMC4357730.

Key:
hTDG-N140A (human) = test: AFM; conditions: AFM: 25 mM HEPES pH 7.5, 25 mM Na acetate, 10 mM Mg acetate, RT, 2-AP hTDG: 20 mM HEPES pH 7.0, 0.2 mM EDTA, 2.5 mM MgCl2, 100 mM NaCl, 25 C, 2-AP hOGG1: 50 mM …, scale: specificity S
hTDG-R275A R275A (human) = hTDG-R275A R275A (human) (UniProt Q13569); test: AFM; conditions: dUF at insert position 9 opposite G (non-cleavable G:U analog); AFM: 25 mM HEPES pH 7.5, 25 mM Na acetate, 10 mM Mg acetate, RT; 2-AP hTDG: 20 mM HEPES pH 7.0, 0.2 mM EDTA, 2.5 mM MgCl2, 100 mM NaCl, 25 C; 2-AP hOGG1: 50 mM …; scale: specificity S
hTDG-R275A R275A (human), sequence (Q13569 whole entry R275A): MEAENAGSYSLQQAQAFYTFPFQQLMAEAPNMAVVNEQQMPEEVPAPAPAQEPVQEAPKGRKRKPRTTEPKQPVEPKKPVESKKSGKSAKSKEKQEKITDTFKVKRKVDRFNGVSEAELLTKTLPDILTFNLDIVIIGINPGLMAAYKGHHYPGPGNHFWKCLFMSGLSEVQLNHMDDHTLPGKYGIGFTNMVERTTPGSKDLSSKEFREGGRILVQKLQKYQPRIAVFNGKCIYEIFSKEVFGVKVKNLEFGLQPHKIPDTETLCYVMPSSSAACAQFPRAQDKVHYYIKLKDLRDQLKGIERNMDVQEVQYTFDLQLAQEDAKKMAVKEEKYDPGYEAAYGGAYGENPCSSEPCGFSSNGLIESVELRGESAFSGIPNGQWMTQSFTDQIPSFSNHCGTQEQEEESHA

**Q.** How did the binding signal (hTDG-N140A (human)) turn out when 549 bp G:T DNA was run?
**A.** 305

**Q.** For 549 bp G:U DNA, which binding signal (hTDG-N140A (human); dU at insert position 9 opposite G) is on record?
**A.** 163

**Q.** 549 bp G:UF DNA was tested. Which binding signal (hTDG-R275A R275A (human)) did it give?
**A.** 358
